Measurements taken from patent US20120114665A1 (Regeneron, published 2012).
Like-named read-outs stand apart in the source and are kept apart here.

T1: human RANKL (receptor activator of NF-κB ligand) (human, UniProt O14788 140-317, limits assumed)
T1 sequence: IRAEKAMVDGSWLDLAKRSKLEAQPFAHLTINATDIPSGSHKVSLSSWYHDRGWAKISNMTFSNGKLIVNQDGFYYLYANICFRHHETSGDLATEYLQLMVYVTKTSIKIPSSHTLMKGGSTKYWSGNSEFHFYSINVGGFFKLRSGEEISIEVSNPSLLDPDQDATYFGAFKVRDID

T2: human trRANKL-his (R&D) (human, UniProt O14788 136-317, limits assumed)
T2 construct: Bought (R&D); also called captured RANKL; not shown: his tag
T2 sequence: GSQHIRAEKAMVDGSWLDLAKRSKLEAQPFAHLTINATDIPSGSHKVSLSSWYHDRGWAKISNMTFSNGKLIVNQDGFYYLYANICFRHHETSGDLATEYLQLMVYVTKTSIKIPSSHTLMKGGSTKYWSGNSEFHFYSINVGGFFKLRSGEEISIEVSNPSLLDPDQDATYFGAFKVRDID

T3: penta-his-tagged hRANKL (human)
T3 construct: also called his-hRANKL; not shown: penta-his tag
T3 chain: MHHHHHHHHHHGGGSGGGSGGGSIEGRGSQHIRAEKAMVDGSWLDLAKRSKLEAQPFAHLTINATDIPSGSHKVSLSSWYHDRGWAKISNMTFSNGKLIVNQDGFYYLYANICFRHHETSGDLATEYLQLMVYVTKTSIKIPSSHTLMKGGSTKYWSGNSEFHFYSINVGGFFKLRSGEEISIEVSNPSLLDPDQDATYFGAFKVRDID

T4: penta-his-tagged monkey (Macaca fascicularis) RANKL (Macaca fascicularis, UniProt O14788 125-317 (human entry))
T4 construct: also called his-mfRANKL; mfRANKL; not shown: penta-his tag
T4 chain: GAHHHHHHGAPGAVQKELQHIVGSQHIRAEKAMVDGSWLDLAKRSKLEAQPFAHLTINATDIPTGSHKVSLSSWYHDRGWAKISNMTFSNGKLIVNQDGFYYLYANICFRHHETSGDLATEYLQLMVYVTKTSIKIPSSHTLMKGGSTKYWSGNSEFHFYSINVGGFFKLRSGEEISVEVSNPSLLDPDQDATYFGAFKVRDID

T5: hRANKL captured on an anti-penta-his antibody surface (human, UniProt O14788 136-317)
T5 construct: also called captured hRANKL surface; not shown: his tag implied by capture on anti-penta-his
T5 sequence: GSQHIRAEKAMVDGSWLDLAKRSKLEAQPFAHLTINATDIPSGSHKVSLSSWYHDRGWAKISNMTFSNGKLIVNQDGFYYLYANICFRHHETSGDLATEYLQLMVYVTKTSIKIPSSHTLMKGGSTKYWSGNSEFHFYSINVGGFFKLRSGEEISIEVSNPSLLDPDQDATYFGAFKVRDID


Tests used:
[1] = molecular target: T1, human RANKL (receptor activator of …); assay: cell-based or functional assay
human trRANKL-his (R&D) [2] = molecular target: T2, human trRANKL-his (R&D); assay: SPR, trRANKL-his captured on anti-his, antibody 12.5-50 nM injected, 25°C
Excerpt: (§1) Briefly, human trRANKL-his (R&D) was first captured over an anti-his surface. […] The antigen and antibody binding and dissociation were monitored for 1 hr. KD is expressed in pM, T_{1/2} in hrs.

human trRANKL-his (R&D) [3] = molecular target: T2, human trRANKL-his (R&D); assay: SPR, trRANKL-his captured on anti-his, antibody 12.5-50 nM injected, 37°C
Excerpt: as §1

penta-his-tagged hRANKL [4] = molecular target: T3, penta-his-tagged hRANKL; assay: competition ELISA: 150 pM his-hRANKL pre-mixed with antibody, free RANKL detected on hRANK-hFc plate
Protocol: (§2) Briefly, hRANK-hFc protein was coated on a 96-well plate in PBS buffer overnight at 4° C. at 2 μg/ml, and nonspecific binding was blocked with BSA, to form a hRANK-hFc surface.

[5] = molecular target: T4, penta-his-tagged monkey (Macaca …); assay: competition ELISA: 150 pM his-mfRANKL pre-mixed with antibody, free RANKL detected on hRANK-hFc plate
Protocol: as §2

[6] = molecular target: T1, human RANKL (receptor activator of …); assay: cell-based or functional assay; remark: listed apart in the source
[7] = molecular target: T1, human RANKL (receptor activator of …); assay: SPR (BIACORE), purified antibody, 25°C
[8] = molecular target: T1, human RANKL (receptor activator of …); assay: SPR (BIACORE), purified antibody, 37°C
[9] = molecular target: T5, hRANKL captured on an anti-penta-his …; assay: SPR (BIACORE), hRANKL captured on anti-penta-his, antibody 25-100 nM injected, 25°C
[10] = molecular target: T5, hRANKL captured on an anti-penta-his …; assay: SPR (BIACORE), hRANKL captured on anti-penta-his, antibody 25-100 nM injected, 37°C
penta-his-tagged hRANKL [11] = molecular target: T3, penta-his-tagged hRANKL; assay: competition ELISA: 150 pM his-hRANKL pre-mixed with antibody, free RANKL detected on hRANK-hFc plate
Protocol: as §2

[12] = molecular target: T4, penta-his-tagged monkey (Macaca …); assay: competition ELISA: 150 pM his-mfRANKL pre-mixed with antibody, free RANKL detected on hRANK-hFc plate
Protocol: as §2

Row | IC50, hRANKL-inducible luciferase activity in HK293/RANK/NFκB-luc-eGFP cells [1] | Kd (human trRANKL-his (R&D) [2]) | T1/2 (human trRANKL-his (R&D) [2]) | Kd (human trRANKL-his (R&D) [3]) | T1/2 (human trRANKL-his (R&D) [3]) | IC50 (penta-his-tagged hRANKL [4]) | IC50 [5] | IC50, hRANKL-inducible luciferase activity in HK293/RANK/NFκB-luc-eGFP cells [6] | Kd [7] | Kd [8] | Kd [9] | T1/2 [9] | Kd [10] | T1/2 [10] | IC50 (penta-his-tagged hRANKL [11]) | IC50 [12] | Binder
1 | 0.0187 nM | 0.134 nM | 1 h | 0.848 nM | 0.15 h | 0.0519 nM | 0.353 nM | – | – | – | – | – | – | – | – | – | H4H010P2 (antibody, V domains shown) VH: QVQLVQSGGGVVQPGRSLRLSCAASGFTFSGYGMHWVRQAPGKGLDWVTVISYDGSNKHYADSVKGRFTISRDNSKNTLYLQMSSLGPEDTAVYYCAKSLSGTYWGYGMDVWGQGTTVTVSS VL: not shown
2 | 0.0108 nM | 0.0119 nM | 6 h | 0.0395 nM | 1 h | 0.09 nM | 0.29 nM | 0.02 nM | 0.007 nM | 0.163 nM | 0.0119 nM | 6 h | 0.0399 nM | 1 h | 0.02 nM | 0.16 nM | H4H008G (antibody, V domains shown, Purified antibody from clone 2G10) VH: QVQLVESGGGVVQPGRSLRLSCAASGFTFSGFGMHWVRQAPGKGLEWVAVISYDGRNKYYADSVKGRFTISRDNSKNTLYLQMNSLRAEDTAVYYCAKSLSGTYWGYGMDVWGQGTTVTVS VL: not shown
